The test system of the data set is MS2 coat protein. The experiment in a line: apparent KD of MS2 coat protein; designed switch direction (-1 OFF switch, 1 ON switch): -1; higher = weaker reporter binding. In outline: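 SNAP-549-labelled MS2 coat protein was titrated, doubling from 0.7 or 1.5 nM to 3 µM, over designed RNA switches transcribed on Illumina chips by stalled E. coli RNA polymerase. Runs were done without input, with 200 uM small-molecule ligand, or with an oligonucleotide input. Apparent KD is the per-design median over clusters of curve-fitted normalised fluorescence.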

Where [1] appears, read: Eterna round: R95, input ligand: FMN 200 uM.
Setting [2] is: Eterna round: R95, input ligand: microRNA oligo, concentration not stated.
[3] abbreviates: Eterna round: R95, input ligand: none.
Where [4] appears, read: input ligand: microRNA oligo, concentration not stated.

“CAUGCUUCGGCAUGUACAAGCUUUUUGCUCGUCUUAUUAACAUGAGGAUCACCCAUGUUAAUGAGACCUCAUGUAUU [Sensor v3 - turn-off variant 2 - 8] (puzzle: Sensor v3, turn-off variant 2)”: the “apparent KD of MS2 coat protein” value under setting [1] was found to be 13.6 nM, the “apparent KD of MS2 coat protein” value under setting [2] came out at 16.7 nM and the “apparent KD of MS2 coat protein” value under setting [3] was 11.4 nM.
As for “UACAUGAGGAUCACCCAUGUUUUGUCGUGUAUGGUACCCGUCUAGGAUAUCGUGUUAUUGGACCACGAGAAGGAGAGUAUCAAU [Excl-NG3-LRO02] (Eterna round: R96, puzzle: Exclusion NG 3)”, the “apparent KD of MS2 coat protein” value worked out at 42.6 nM (input ligand: FMN 200 uM), 20.3 nM under setting [4] and 31.7 nM (input ligand: none).
In the case of “CAGCUGAAAGUGAGGAUAUCUAGAGCUUCGGCUCUAGAGAAGGCACAUGAGGAUCACCCAUGUCUCAACAGCUG [BmEx4/1-A1] (Eterna round: R97, puzzle: Brourd's mod of Exclusion 4)”, the “apparent KD of MS2 coat protein” value reads like this: (input ligand: FMN 200 uM) 59.5 nM; (input ligand: none) 16.9 nM.
The like results for “AAAUUGGUAGAGGAUAUUGUACAGGAAACGGUGCGAGAAGGUUGCACAUGAGGAUCACCCAUGUUAAGUUGCGA [EX6 #46] (Eterna round: R97, puzzle: Exclusion 6)” were, in that order, 39.9 nM and 25.7 nM.
For the sequence “UUGUUGUAUGUAGGAUAUGCGUGUUAUUAUUAUGCAGAAGGACAUGAGGAUCACCCAUGUAUAUUAUUAUUAUAUGUUAUAUAU [Title] (Eterna round: R96, puzzle: Exclusion NG 1)”, the “apparent KD of MS2 coat protein” value under setting [4] was found to be 17.6 nM.
As to “CCUAAGAAAGGAUAUACACCGGUGGGCCGCUGAAUUCAGCAACAUGAGGAUCACCCAUGUAGAAGGUUUAUGGG [Veteso] (Eterna round: R96, puzzle: Exclusion 2)”, the “apparent KD of MS2 coat protein” value reads like this: (input ligand: FMN 200 uM) 346 nM; under setting [4], 147 nM; (input ligand: none) 262 nM.
In the case of “GGAAGCAAGGAAUAACUAAACAUGAGGAUCACCCAUGUAGAGCCCAUGUGCACGCAAAGCGUGCAAGCUCGUCUUAU [AK-miRNA-r3-17] (Eterna round: R97, puzzle: Sensor, turn-off variant 1)”, the “apparent KD of MS2 coat protein” value (input ligand: FMN 200 uM) came out at 64.4 nM and the “apparent KD of MS2 coat protein” value (input ligand: none) amounted to 80.8 nM.
For “AGUCGGUCAGGAUAUGCAAACGUAGACAUGAGGAUCACCCAUGUAACGUGGGCCUGGUUUGUAGAAGGGACGAGCA [EX5 #85] (Eterna round: R97, puzzle: Exclusion 5)” the same measures were 38.2 nM and 28.2 nM.
“CACCGUUAGAGAGGAUAUCGUACAUGAGGAUCACCCAUGUAAUAAAUGAGAAUUUCGGAUGUAUGCGAGAAGGCUCGAAUCGGC [Ostracism 33 - Jieux - Exclusion NG 2] (Eterna round: R96, puzzle: Exclusion NG 2)”: the “apparent KD of MS2 coat protein” value under setting [4] amounted to 38.6 nM.
Regarding “GUCACAUGGACAUAGGAUCACAUGAGGAUCACCCAUGUGACUAACAAGCUUUUUGUUCGUCUUAUGUCUAUGUGAAU [Stov1/16-B2] (Eterna round: R97, puzzle: Sensor, turn-off variant 1)”, the “apparent KD of MS2 coat protein” value amounted to 13.2 nM (input ligand: FMN 200 uM) and 12.3 nM (input ligand: none).
The like results for “AUUUUAGAAGGAUAUUGACCGGUGGACAUGAGGAUCACCCAUGUCGUCCUGCCCAUUCCGUAAGAAGGUCUAGCGU [Eternabot (L1) Solution 96] (Eterna round: R97, puzzle: Exclusion 5)” were, in that order, 23.7 nM and 24.8 nM.
As to “CCAUAAAGGAAGGAUAUGCUAGACGAAAGUCUAGCAGAAGGUCCUACAUGAGGAUCACCCAUGUGGCCUCAUGG [Mat - Exclusion 6 - Eli Mod - D49] (Eterna round: R97, puzzle: Exclusion 6)”, the “apparent KD of MS2 coat protein” value runs as follows: (input ligand: FMN 200 uM) 116 nM; (input ligand: none) 198 nM.
For “GAGAAGUGAGGAUAUGCGGUAAGGAUGAAAGGAAGGAAUGAGUAGAAGGCACAUGAGGAUCACCCAUGUAGAGU [JR_Exclu4_Sub081] (puzzle: Exclusion 4)”, the “apparent KD of MS2 coat protein” value runs as follows: under setting [1], 19.5 nM; under setting [2], 18.5 nM; under setting [3], 21.1 nM.
In the case of “UUAAAUCAUGUAGGAUAUGCGUGGCGAAGCUAUGCAGAAGGACAUGAGGAUCACCCAUGUCUUUCCGUCUGCGUACAGAUGGAA [JL Eng1 1.08 mod 2] (Eterna round: R96, puzzle: Exclusion NG 1)”, the “apparent KD of MS2 coat protein” value was 259 nM (input ligand: FMN 200 uM), 19.8 nM under setting [4] and 24.8 nM (input ligand: none).

(Values after the supplement of paper PMC9170038.)
